Laboratory results from patent publication US20190382503A1 (published 2019).

Key:
[1] = molecular target: T1, CD137 / 4-1BB (soluble antigen, form not stated) (UniProt Q07011 24-186, limits assumed); test: ELISA
T1 construct: also called biotinylated 4-1BB antigen; CD137 in ELISA

human 5T4 on cells [2] = molecular target: T2, human 5T4 on cells (human, UniProt Q13641 32-420); test: flow cytometry, JAR cells, streptavidin-PE, normalized MFI of 2 pooled experiments
T2 construct: Human 5T4 on transfected cells (CHO-K1, CT26, B16) or endogenous on human tumour lines; the cell line is named under assay; also called trophoblast glycoprotein; TPBG
T2 sequence: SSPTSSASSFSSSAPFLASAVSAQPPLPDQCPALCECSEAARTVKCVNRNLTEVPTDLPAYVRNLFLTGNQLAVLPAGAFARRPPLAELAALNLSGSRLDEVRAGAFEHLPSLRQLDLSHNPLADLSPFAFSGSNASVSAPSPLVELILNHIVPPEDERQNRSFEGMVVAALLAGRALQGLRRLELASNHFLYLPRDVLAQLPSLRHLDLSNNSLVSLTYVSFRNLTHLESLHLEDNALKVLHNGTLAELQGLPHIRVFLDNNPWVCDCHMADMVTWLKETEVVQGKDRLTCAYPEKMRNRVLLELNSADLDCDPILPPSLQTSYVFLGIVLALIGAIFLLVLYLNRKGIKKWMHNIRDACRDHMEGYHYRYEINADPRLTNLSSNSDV
Protocol: (§1) Biotinylation: In order to detect ALG.APV-210 binding to 5T4-expressing cell lines, ALG.APV-210 was first biotinylated. The quality of the biotinylated protein and the impact on binding to its targets was assessed using ELISA.
(§2) FACS staining and analysis of 5T4-expressing cell lines: Prior to the FACS staining, all cell lines were characterized for their 5T4 expression levels using a receptor density kit (Quantum Simply Cellular, anti-human IgG, Bangs Laboratories, Inc). Adherent cell lines were cultured according to their supplier's instructions and were harvested from their cell culture flasks using Trypsin/EDTA, counted in R10 medium in a Burker chamber, and diluted in FACS buffer (PBS+0.5% BSA, 0.05% NaN₃) to a concentration of 4×10⁶ cells/mL. 50 μL (0.20×10⁶) of cell solution was added to a 96-well FACS staining plate (Falcon #351190). Cells were incubated for 20 min in 4° C. with 50 μL of the biotinylated ALG.APV-210 (2× final concentration). […] Cells were analysed for ALG.APV-210 binding using flow cytometry (FACSVerse) by gating on single cells. MFI values (secondary antibody only subtracted) from 1 out of 2 independent experiments, as well as normalized data and EC₅₀-values of pooled data from 2 experiments were determined and plotted using GraphPad Prism 7, non-linear regression log (agonist) vs. normalized response-variable slope.

human 5T4 on cells [3] = molecular target: T2, human 5T4 on cells; test: flow cytometry, SKOV-3 cells, streptavidin-PE, normalized MFI of 2 pooled experiments
Protocol: as §1, §2

B1: biotinylated ALG.APV-210 (bispecific antibody)
chain: EVQLLESGGGLVQPGGSLRLSCAASGFTFSHGSMYWVRQAPGKGLEWVSSISSGSGSTYYADSVKGRFTISHDNSKNTLYLQMNSLRAEDTAVYYCARSSYYGSYYSIDYWGQGTLVTVSSGGGGSGGGGSGGGGSGGGGSDIQMTQSPSSLSASVGDRVTITCRASQSISSYLNWYQQKPGKAPKLLIYAASSLQSGVPSRFSGSGSGTDFTLTISSLQPEDFATYYCQQYYDNLPTFGQGTKLEIKEPKSSDKTHTCPPCPAPEAAGAPSVFLFPPKPKDTLMISRTPEVTCVVVDVSHEDPEVKFNWYVDGVEVHNAKTKPREEQYNSTYRVVSVLTVLHQDWLNGKEYKCAVSNKALPAPIEKTISKAKGQPREPQVYTLPPSRDELTKNQVSLTCLVKGFYPSDIAVEWESNGQPENNYKTTPPVLDSDGSFFLYSKLTVDKSRWQQGNVFSCSVMHEALHNHYTQKSLSLSPGSGGGGSGGGGSGGGGSPSEVQLLESGGGLVQPGGSLRLSCAASGFTFSSYAMSWVRQAPGKCLEWVSAISGSGGSTYYADSVKGRFTISRDNSKNTLYLQMNSLRAEDTAVYYCARYYGGYYSAWMDYWGQGTLVTVSSGGGGSGGGGSGGGGSGGGGSDIQMTQSPSSLSASVGDRVTITCRASQSISSFLNWYQQKPGKAPKLLIYAASSLQSGVPSRFSGSGSGTDFTLTISSLQPEDSATYYCQQTYGYLHTFGCGTKLEIKR
modifications: biotinylated (sites not given)
- EC50 [1]: 0.6 nM
- EC50 (human 5T4 on cells [2]): 9 nM
- EC50 (human 5T4 on cells [3]): 15 nM
